Laboratory results: US20240343802A1 (Zymeworks, published 2024)

T1: CD20 on CD19 and CD20-expressing Raji B cells (human, UniProt P11836 1-297)
T1 construct: whole, on cells
T1 sequence (looked up): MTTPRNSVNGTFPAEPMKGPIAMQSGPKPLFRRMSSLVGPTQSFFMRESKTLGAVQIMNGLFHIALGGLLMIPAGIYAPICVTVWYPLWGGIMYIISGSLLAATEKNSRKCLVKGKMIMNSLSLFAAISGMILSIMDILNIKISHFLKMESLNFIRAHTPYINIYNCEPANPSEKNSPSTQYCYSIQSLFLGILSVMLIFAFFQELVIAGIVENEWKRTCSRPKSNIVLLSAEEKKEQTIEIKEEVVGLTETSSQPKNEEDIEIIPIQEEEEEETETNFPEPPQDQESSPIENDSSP

T2: CD19 on CD19-expressing Raji B cells (human, UniProt P15391 20-556)
T2 construct: whole, on cells
T2 sequence (looked up): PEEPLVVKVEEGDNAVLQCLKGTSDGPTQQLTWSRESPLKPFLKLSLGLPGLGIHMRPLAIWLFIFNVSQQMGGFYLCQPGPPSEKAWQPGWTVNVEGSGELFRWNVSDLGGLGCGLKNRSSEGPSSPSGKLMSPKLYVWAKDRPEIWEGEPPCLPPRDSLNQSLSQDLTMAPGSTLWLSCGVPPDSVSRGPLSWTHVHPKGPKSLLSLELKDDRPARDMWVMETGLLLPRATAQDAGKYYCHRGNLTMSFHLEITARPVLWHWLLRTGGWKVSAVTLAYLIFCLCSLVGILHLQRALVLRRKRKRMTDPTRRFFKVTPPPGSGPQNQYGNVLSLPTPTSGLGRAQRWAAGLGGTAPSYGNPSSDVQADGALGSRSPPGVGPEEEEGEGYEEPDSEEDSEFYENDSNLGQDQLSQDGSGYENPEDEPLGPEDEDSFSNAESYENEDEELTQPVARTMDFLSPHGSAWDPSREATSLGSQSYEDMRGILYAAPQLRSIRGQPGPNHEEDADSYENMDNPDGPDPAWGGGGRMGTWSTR


Tests used:
[1] = target: T3, CD3 on CD3-expressing T cells (Jurkat, HPB-ALL) (UniProt P07766 23-207); experiment: FACS, Jurkat cells
T3 construct: whole, on cells; A multi-chain complex on cells; also called CD3 complex

[2] = target: T1, CD20 on CD19 and CD20-expressing Raji B …; experiment: FACS, Raji cells
[3] = target: T2, CD19 on CD19-expressing Raji B cells; experiment: FACS, Raji cells

Binder | Bmax (OD450) [1] [OD450] | Kd [1] [nM] | Bmax (OD450) [2] [OD450] | Kd [2] [nM] | Bmax (OD450) [3] [OD450] | Kd [3] [nM]
v1821, common light chain: aCD3-12F6_Fab chain A / aCD20-Rituximab_Fab chain B, Rituximab light chain (bispecific antibody, human IgG1, kappa, The single light chain is shared by both Fabs) chain 1: QVQLVQSGGGVVQPGRSLRLSCKASGYTFTSYTMHWVRQAPGKGLEWIGYINPSSGYTKYNQKFKDRFTISADKSKSTAFLQMDSLRPEDTGVYFCARWQDYDVYFDYWGQGTPVTVSSASTKGPSVFPLAPSSKSTSGGTAALGCLVKDYFPEPVTVSWNSGALTSGVHTFPAVLQSSGLYSLSSVVTVPSSSLGTQTYICNVNHKPSNTKVDKKVEPKSCDKTHTCPPCPAPELLGGPSVFLFPPKPKDTLMISRTPEVTCVVVDVSHEDPEVKFNWYVDGVEVHNAKTKPREEQYNSTYRVVSVLTVLHQDWLNGKEYKCKVSNKALPAPIEKTISKAKGQPREPQVYVYPPSRDELTKNQVSLTCLVKGFYPSDIAVEWESNGQPENNYKTTPPVLDSDGSFALVSKLTVDKSRWQQGNVFSCSVMHEALHNHYTQKSLSLSPGK chain 2: not shown chain 3: QIVLSQSPAILSASPGEKVTMTCRASSSVSYIHWFQQKPGSSPKPWIYATSNLASGVPVRFSGSGSGTSYSLTISRVEAEDAATYYCQQWTSNPPTFGGGTKLEIKRTVAAPSVFIFPPSDEQLKSGTASVVCLLNNFYPREAKVQWKVDNALQSGNSQESVTEQDSKDSTYSLSSTLTLSKADYEKHKVYACEVTHQGLSSPVTKSFNRGEC | 2.11 | 182 | 4.71 | 122 | – | –
v1823, common light chain: aCD3-12F6_Fab chain A / aCD20-Tositumumab_Fab chain B, Tositumumab light chain (bispecific antibody, human IgG1, kappa, The single light chain is shared by both Fabs) chain 1: QVQLVQSGGGVVQPGRSLRLSCKASGYTFTSYTMHWVRQAPGKGLEWIGYINPSSGYTKYNQKFKDRFTISADKSKSTAFLQMDSLRPEDTGVYFCARWQDYDVYFDYWGQGTPVTVSSASTKGPSVFPLAPSSKSTSGGTAALGCLVKDYFPEPVTVSWNSGALTSGVHTFPAVLQSSGLYSLSSVVTVPSSSLGTQTYICNVNHKPSNTKVDKKVEPKSCDKTHTCPPCPAPELLGGPSVFLFPPKPKDTLMISRTPEVTCVVVDVSHEDPEVKFNWYVDGVEVHNAKTKPREEQYNSTYRVVSVLTVLHQDWLNGKEYKCKVSNKALPAPIEKTISKAKGQPREPQVYVYPPSRDELTKNQVSLTCLVKGFYPSDIAVEWESNGQPENNYKTTPPVLDSDGSFALVSKLTVDKSRWQQGNVFSCSVMHEALHNHYTQKSLSLSPGK chain 2: not shown chain 3: QIVLSQSPAILSASPGEKVTMTCRASSSVSYMHWYQQKPGSSPKPWIYAPSNLASGVPARFSGSGSGTSYSLTISRVEAEDAATYYCQQWSFNPPTFGAGTKLELKRTVAAPSVFIFPPSDEQLKSGTASVVCLLNNFYPREAKVQWKVDNALQSGNSQESVTEQDSKDSTYSLSSTLTLSKADYEKHKVYACEVTHQGLSSPVTKSFNRGEC | 0.88 | 68.8 | – | – | – | –
v4542, cyno/human cross-reactive anti-CD3 BiTE 12C (VH-VL) scFv / anti-CD19 MOR208 (VH-VL) scFv heterodimeric knock-out Fc (bispecific antibody) chain 1: not shown chain 2: EVQLVESGGGLVKPGGSLKLSCAASGYTFTSYVMHWVRQAPGKGLEWIGYINPYNDGTKYNEKFQGRVTISSDKSISTAYMELSSLRSEDTAMYYCARGTYYYGTRVFDYWGQGTLVTVSSGGGGSGGGGSGGGGSDIVMTQSPATLSLSPGERATLSCRSSKSLQNVNGNTYLYWFQQKPGQSPQLLIYRMSNLNSGVPDRFSGSGSGTEFTLTISSLEPEDFAVYYCMQHLEYPITFGAGTKLEIKAAEPKSSDKTHTCPPCPAPEAAGGPSVFLFPPKPKDTLMISRTPEVTCVVVSVSHEDPEVKFNWYVDGVEVHNAKTKPREEQYNSTYRVVSVLTVLHQDWLNGKEYKCKVSNKALPAPIEKTISKAKGQPREPQVYVLPPSRDELTKNQVSLLCLVKGFYPSDIAVEWESNGQPENNYLTWPPVLDSDGSFFLYSKLTVDKSRWQQGNVFSCSVMHEALHNHYTQKSLSLSPGK | – | – | – | – | 2.96 | 0.7
v5852, hybrid: aCD3-Teplizumab-hOKT3_Fab chain A and light chain / aCD19-MOR208_scFvFc (VHVL) chain B (bispecific antibody, human IgG1, kappa, L234A L235A) chain 1: QVQLVQSGGGVVQPGRSLRLSCKASGYTFTRYTMHWVRQAPGKGLEWIGYINPSRGYTNYNQKVKDRFTISRDNSKNTAFLQMDSLRPEDTGVYFCARYYDDHYCLDYWGQGTPVTVSSASTKGPSVFPLAPSSKSTSGGTAALGCLVKDYFPEPVTVSWNSGALTSGVHTFPAVLQSSGLYSLSSVVTVPSSSLGTQTYICNVNHKPSNTKVDKKVEPKSCDKTHTCPPCPAPELLGGPSVFLFPPKPKDTLMISRTPEVTCVVVDVSHEDPEVKFNWYVDGVEVHNAKTKPREEQYNSTYRVVSVLTVLHQDWLNGKEYKCKVSNKALPAPIEKTISKAKGQPREPQVYVYPPSRDELTKNQVSLTCLVKGFYPSDIAVEWESNGQPENNYKTTPPVLDSDGSFALVSKLTVDKSRWQQGNVFSCSVMHEALHNHYTQKSLSLSPGK chain 2: EVQLVESGGGLVKPGGSLKLSCAASGYTFTSYVMHWVRQAPGKGLEWIGYINPYNDGTKYNEKFQGRVTISSDKSISTAYMELSSLRSEDTAMYYCARGTYYYGTRVFDYWGQGTLVTVSSGGGGSGGGGSGGGGSDIVMTQSPATLSLSPGERATLSCRSSKSLQNVNGNTYLYWFQQKPGQSPQLLIYRMSNLNSGVPDRFSGSGSGTEFTLTISSLEPEDFAVYYCMQHLEYPITFGAGTKLEIKAAEPKSSDKTHTCPPCPAPEAAGGPSVFLFPPKPKDTLMISRTPEVTCVVVSVSHEDPEVKFNWYVDGVEVHNAKTKPREEQYNSTYRVVSVLTVLHQDWLNGKEYKCKVSNKALPAPIEKTISKAKGQPREPQVYVLPPSRDELTKNQVSLLCLVKGFYPSDIAVEWESNGQPENNYLTWPPVLDSDGSFFLYSKLTVDKSRWQQGNVFSCSVMHEALHNHYTQKSLSLSPGK chain 3: DIQMTQSPSSLSASVGDRVTITCSASSSVSYMNWYQQTPGKAPKRWIYDTSKLASGVPSRFSGSGSGTDYTFTISSLQPEDIATYYCQQWSSNPFTFGQGTKLQITRTVAAPSVFIFPPSDEQLKSGTASVVCLLNNFYPREAKVQWKVDNALQSGNSQESVTEQDSKDSTYSLSSTLTLSKADYEKHKVYACEVTHQGLSSPVTKSFNRGEC | 2.21 | 25.2 | – | – | – | –
v5851, hybrid: aCD3-BiTEx_I2C_scFvFc (VHVL) chain A / aCD19-MOR208_Fab chain B and light chain (bispecific antibody) chain 1: not shown chain 2: not shown chain 3: DIVMTQSPATLSLSPGERATLSCRSSKSLQNVNGNTYLYWFQQKPGQSPQLLIYRMSNLNSGVPDRFSGSGSGTEFTLTISSLEPEDFAVYYCMQHLEYPITFGAGTKLEIKRTVAAPSVFIFPPSDEQLKSGTASVVCLLNNFYPREAKVQWKVDNALQSGNSQESVTEQDSKDSTYSLSSTLTLSKADYEKHKVYACEVTHQGLSSPVTKSFNRGEC | – | – | – | – | 3.88 | 1.38
v5850, hybrid: aCD3-BiTEx_I2C_scFvFc (VHVL) chain A / aCD20-Ofatumumab_Fab chain B and light chain (bispecific antibody) chain 1: not shown chain 2: not shown chain 3: not shown | – | – | 4.24 | 3.6 | – | –
v1813, common light chain: aCD3-foralumab_Fab chain A / aCD20-Ofatumumab_Fab chain B, Ofatumumab light chain (bispecific antibody, human IgG1, kappa, The single light chain is shared by both Fabs) chain 1: not shown chain 2: not shown chain 3: not shown | 2.54 | 691 | 6.4 | 4.04 | – | –
v6325, hybrid: aCD3-Teplizumab-hOKT3_Fab chain A and light chain / aCD20-Ofatumumab_scFvFc (VHVL) chain B (bispecific antibody, human IgG1, kappa) chain 1: QVQLVQSGGGVVQPGRSLRLSCKASGYTFTRYTMHWVRQAPGKGLEWIGYINPSRGYTNYNQKVKDRFTISRDNSKNTAFLQMDSLRPEDTGVYFCARYYDDHYCLDYWGQGTPVTVSSASTKGPSVFPLAPSSKSTSGGTAALGCLVKDYFPEPVTVSWNSGALTSGVHTFPAVLQSSGLYSLSSVVTVPSSSLGTQTYICNVNHKPSNTKVDKKVEPKSCDKTHTCPPCPAPELLGGPSVFLFPPKPKDTLMISRTPEVTCVVVDVSHEDPEVKFNWYVDGVEVHNAKTKPREEQYNSTYRVVSVLTVLHQDWLNGKEYKCKVSNKALPAPIEKTISKAKGQPREPQVYVYPPSRDELTKNQVSLTCLVKGFYPSDIAVEWESNGQPENNYKTTPPVLDSDGSFALVSKLTVDKSRWQQGNVFSCSVMHEALHNHYTQKSLSLSPGK chain 2: not shown chain 3: DIQMTQSPSSLSASVGDRVTITCSASSSVSYMNWYQQTPGKAPKRWIYDTSKLASGVPSRFSGSGSGTDYTFTISSLQPEDIATYYCQQWSSNPFTFGQGTKLQITRTVAAPSVFIFPPSDEQLKSGTASVVCLLNNFYPREAKVQWKVDNALQSGNSQESVTEQDSKDSTYSLSSTLTLSKADYEKHKVYACEVTHQGLSSPVTKSFNRGEC | 2.51 | 1.58 | 6.44 | 11.9 | – | –
